From patent publication US20090257987A1, “Method of generating dopamine-secreting cells” (Ramot At Tel Aviv University Ltd., priority 2008, published 2009)

Columns and labels:
Format in all cases: cell-based
human MSCs [1] = experiment: Western blot analysis of TH protein expression after differentiation protocols; conditions: result in words
Description: MSC isolation, culture, and characterization: Fresh bone marrow aspirates harvested from the iliac crests of adult donors (age 19-76) were diluted with Hanks' balanced salt solution. Mononuclear cells were isolated by centrifugation in Unisep-Maxi tubes (Novamed, Jerusalem, Israel) by density gradient. The cells were then plated in Dulbecco's Modified Eagle's Medium (DMEM) supplemented with 15% fetal bovine serum (FBS), 2 mM glutamine, 100 μg/ml streptomycin, 100 units/ml penicillin, 12.5 units/ml nystatin (Biological Industries, Beit HaEmek, Israel) in polystyrene plastic 75-cm^2 tissue-culture flasks. After 24 hours, nonadherent cells were removed. The medium was changed every 3-4 days. Adherent cells were cultured to 70%-90% confluence and reseeded at a density of 5,000-10,000 cells/cm^2. The cells were maintained at 37° C. in a humidified 5% CO2 incubator. The MSCs were characterized for their cell-surface phenotype and their mesenchymal differentiation capacity, as previously described (Blondheim er al., 2006, Stem Cells Dev 15:141-164).
(§1) Induction of differentiation: The differentiation protocol was composed of 2 steps. In step 1, cells were transferred to serum-free medium (DMEM) supplemented with 2 mM glutamine, 100 μg/ml streptomycin, 100 units/ml penicillin, 12.5 units/ml nystatin (Biological Industries), N2 supplement (Invitrogen, New Haven, Conn.) and 20 ng/ml fibroblast growth factor 2 and epidermal growth factor (both from R&D Systems, Minneapolis, Minn.) for 48-72 hours. In step 2, the medium was changed to Basic induction medium containing Neurobasal, B27 (both from Invitrogen), in addition to 1 mM dibutyryl cyclic AMP (dbcAMP), 3-isobutyl-1-methyl-xanthine (IBMX), and 200 μM ascorbic acid (all from Sigma, St Louis, Mo.). The following factors were added to the Basic induction medium in different combinations: brain-derived neurotrophic factor (BDNF; 50 ng/ml), glial-derived neurotrophic factor (GDNF;10 ng/ml), neurturin (100 ng/ml), neurotrophin 3 (NT3; 50 ng/ml), and fibroblast growth factor 8 (FGF8; 100 ng/ml (all from Cytolab, Rehovot, Israel); transforming growth factor β3 (TGFβ3; 2 ng/ml), sonic hedgehog (Shh; 500 ng/ml, both from R&D); estrogen (0.1 μM, Sigma); and all-trans-retinoic acid (RA; 0.1 μM, Sigma).
Western blot: Total protein was extracted by suspending the harvested cells in lysis buffer containing 10 mM Tris base (U.S. Biochemical Corporation, Cleveland, Ohio), 5 mM EDTA (Merck, Whitehouse Station, N.J.), 140 mM sodium chloride (NaCl; BioLab, Jerusalem, Israel), 10 mM sodium fluoride (NaF; Sigma), 0.5% NP 40 (U.S. Biochemical Corporation), and 1 μM phenylmethylsulfonyl fluoride (PMSF; Sigma). Following incubation on ice for 30 minutes, the mixture was centrifuged and the supernatants were collected. Protein content was determined by the BCA protein assay kit (Pierce, Rockford, Ill.). Twenty-five micrograms of protein from each sample were subjected to sodium dodecyl-sulfate (SDS)-polyacrylamide gel electrophoresis (PAGE) (12.5% acrylamide), followed by electrophoretic transfer to nitrocellulose membrane (Schleicher & Schuell, Dassel, Germany). Membranes were probed by mouse anti-TH (1:10,000, Sigma) and mouse anti β-actin (1:10,000, Chemicon, Billerica, Mass.) and then by goat anti-mouse horseradish peroxidase conjugated antibody (1:10,000) (Jackson, West Grove, Pa.) and rabbit anti-emerin (1:5,000, Santa Cruz Biotechnology, Santa Cruz, Calif.), followed by goat anti-rabbit horseradish peroxidase conjugated secondary antibody (1:10,000, Sigma). Adequate controls included HeLa cells (ATCC, Manassas, Va.) as negative control and neuroblastoma M17 cells (BE (2)-M17, ATCC) as positive control. Proteins of interest were detected using the enhanced Super Signal® chemiluminescent detection kit (Pierce).

human MSCs [2] = experiment: Bright-light microscopy of cell morphology after induction; conditions: from MSC fibroblast shape
Description: as §1

human MSCs [3] = experiment: Immunocytochemistry for neuronal markers Tuj1 and NeuN
Description: Induction of differentiation: The differentiation protocol was composed of 2 steps. In step 1, cells were transferred to serum-free medium (DMEM) supplemented with 2 mM glutamine, 100 μg/ml streptomycin, 100 units/ml penicillin, 12.5 units/ml nystatin (Biological Industries), N2 supplement (Invitrogen, New Haven, Conn.) and 20 ng/ml fibroblast growth factor 2 and epidermal growth factor (both from R&D Systems, Minneapolis, Minn.) for 48-72 hours. In step 2, the medium was changed to Basic induction medium containing Neurobasal, B27 (both from Invitrogen), in addition to 1 mM dibutyryl cyclic AMP (dbcAMP), 3-isobutyl-1-methyl-xanthine (IBMX), and 200 μM ascorbic acid (all from Sigma, St Louis, Mo.). […] Cells were photographed with a fluorescence Olympus IX70-[…] microscope with a fluorescent light source (excitation wavelength, 330-385 nm; barrier filter, 420 nm) and a U-MNU filter cube (Olympus, Center Valley, Pa.).

human MSCs [4] = experiment: Intracellular FACS analysis of TH expression; conditions: none of the untreated cells
Description: Induction of differentiation: The differentiation protocol was composed of 2 steps. In step 1, cells were transferred to serum-free medium (DMEM) supplemented with 2 mM glutamine, 100 μg/ml streptomycin, 100 units/ml penicillin, 12.5 units/ml nystatin (Biological Industries), N2 supplement (Invitrogen, New Haven, Conn.) and 20 ng/ml fibroblast growth factor 2 and epidermal growth factor (both from R&D Systems, Minneapolis, Minn.) for 48-72 hours. In step 2, the medium was changed to Basic induction medium containing Neurobasal, B27 (both from Invitrogen), in addition to 1 mM dibutyryl cyclic AMP (dbcAMP), 3-isobutyl-1-methyl-xanthine (IBMX), and 200 μM ascorbic acid (all from Sigma, St Louis, Mo.). […]
Intracellular fluorescence-activated cell sorter (FACS) analysis: Cells were harvested from the tissue culture flasks, centrifuged, and resuspended in phosphate-buffered saline (PBS). […] The results were analyzed with CellQuest software. […]

B1: brain-derived neurotrophic factor (protein, UniProt P23560 19-247, looked up)
Neurotrophic factor BDNF …: APMKEANIRGQGGLAYPGVRTHGTLESVNGPKAGSRGLTSLADTFEHVIEELLDEDQKVRPNEENNKDADLYTSRVMLSSQVPLEPPLLFLLEEYKNYLDAANMSMRVRRHSDPARRGELSVCDSISEWVTAADKKTAVDMSGGTVTVLEKVPVSKGQLKQYFYETKCNPMGYTKEGCRGIDKRHWNSQCRTTQSYVRALTMDSKKRIGWRFIRIDTSCVCTLTIKRGR
notes: brain-derived neurotrophic factor (50 ng/ml) added to the Basic induction medium
TH protein expression level normalized to actin (human MSCs [1]; listed as BDNF): directly affected the TH protein expression level
TH protein expression level normalized to actin (human MSCs [1]; listed as BDNF alone): significant results
cell morphology (human MSCs [2]): neuron-like appearance
NeuN staining (human MSCs [3]): stained positive
Tuj 1 expression (human MSCs [3]; versus untreated MSCs): higher levels
induced cells expressing the TH protein at a detectable level (human MSCs [4]): More than 30%
